We go through five molecules from US6222018, “Hypoxia inducible factor-1 and method of use” (The Johns Hopkins University School of Medicine).

Data set [1] concerns the target T1, endogenous HIF-1 in hypoxic Hep3B cells (Homo sapiens, UniProt Q16665;P27540 Q16665:1-826,P27540:2-789). Put plainly: cell_activity; psvcatEPO2, two copies, 1% vs 20% O2; one copy 4.9-fold. The settings on record: chain copies: heterodimer (inferred). The text has this: Oligonucleotides were cloned into the BglII and BamHI sites located 5' and 3' to the transcription unit, respectively. Plasmids pNMHcat and pHcat (Concordet et al. (1991) Nucleic Acids Res. 19:4173–4180), containing human aldolase A gene sequences fused directly to CAT coding sequences, were provided by P. Maire. pSVβgal (Promega) contained bacterial lacZ coding sequences driven by the SV40 early region promoter and enhancer. Plasmids were purified by alkaline lysis and two rounds of cesium chloride density gradient centrifugation. Hep3B cells were transfected by electroporation with a Gene Pulser (Bio-Rad) at 260 V and 960 microfarads. Duplicate electroporations were pooled and split onto two 10 cm tissue culture dishes (Corning) containing 8 ml of media. […]
To determine whether these HIF-1 binding sites were of functional importance, transient expression essays were performed using the reporter genes described above. […] Transfected cells were split among duplicate plates that were cultured in 1 or 20% O_2 for 48 h, CAT and β-galactosidase protein synthesized following transcription of reporter and control plasmids, respectively, were quantitated from cellular extracts. […]

Data set [2] concerns the target T1, endogenous HIF-1 in hypoxic Hep3B cells. The experiment in a line: cell_activity; pPFKL3svcat, three copies, 1% vs 20% O2. The settings on record: chain copies: heterodimer (inferred); 5' GATC overhang. On the procedure: (§1) Plasmids were purified by alkaline lysis and two rounds of cesium chloride density gradient centrifugation. Hep3B cells were transfected by electroporation with a Gene Pulser (Bio-Rad) at 260 V and 960 microfarads. Duplicate electroporations were pooled and split onto two 10 cm tissue culture dishes (Corning) containing 8 ml of media. Cells were allowed to recover for 24 h in a 5% CO_2 95% air incubator at 37° C., the media was replaced, and one set of duplicate plates was removed to a modular incubator chamber, which was flushed with 1% O_2, 5% CO_2, balance N_2, sealed, and placed at 37° C. Cells were harvested 72 h after transfection, and extracts were prepared for CAT and β-galactosidase activity.
(§2) To determine whether these HIF-1 binding sites were of functional importance, transient expression essays were performed using the reporter genes described above. Reporter plasmids were cotransfected into Hep3B cells with pSVβgal, which was included as a control for variation in transfection efficiency. Transfected cells were split among duplicate plates that were cultured in 1 or 20% O_2 for 48 h, CAT and β-galactosidase protein synthesized following transcription of reporter and control plasmids, respectively, were quantitated from cellular extracts. […]
(§3) HIF-1 binding site sequences from glycolytic genes were analyzed in the same assay. […]

The target is the same in data set [3]. The experiment in a line: cell_activity; pPGK2svcat, two copies, 1% vs 20% O2. To be noted: chain copies: heterodimer (inferred); 5' GATC overhang. As for the experimental part: as §1, §2, §3
Data set [4] deals with T2, HIF-1 (HIF-1alpha/HIF-1beta (ARNT) heterodimer), affinity-purified (Homo sapiens, UniProt Q16665;P27540 Q16665:1-826,P27540:2-789). The experiment in a line: competition; up to 250-fold excess M18 does not compete; HIF-1 flows through M18 column. To be noted: tags: none; from CoCl2-treated HeLa S3 cells or hypoxic Hep3B cells; chain copies: heterodimer (inferred), higher-order form also seen; 5' gatc overhangs.
T2 sequence (Q16665 whole entry, chain 1 of 2): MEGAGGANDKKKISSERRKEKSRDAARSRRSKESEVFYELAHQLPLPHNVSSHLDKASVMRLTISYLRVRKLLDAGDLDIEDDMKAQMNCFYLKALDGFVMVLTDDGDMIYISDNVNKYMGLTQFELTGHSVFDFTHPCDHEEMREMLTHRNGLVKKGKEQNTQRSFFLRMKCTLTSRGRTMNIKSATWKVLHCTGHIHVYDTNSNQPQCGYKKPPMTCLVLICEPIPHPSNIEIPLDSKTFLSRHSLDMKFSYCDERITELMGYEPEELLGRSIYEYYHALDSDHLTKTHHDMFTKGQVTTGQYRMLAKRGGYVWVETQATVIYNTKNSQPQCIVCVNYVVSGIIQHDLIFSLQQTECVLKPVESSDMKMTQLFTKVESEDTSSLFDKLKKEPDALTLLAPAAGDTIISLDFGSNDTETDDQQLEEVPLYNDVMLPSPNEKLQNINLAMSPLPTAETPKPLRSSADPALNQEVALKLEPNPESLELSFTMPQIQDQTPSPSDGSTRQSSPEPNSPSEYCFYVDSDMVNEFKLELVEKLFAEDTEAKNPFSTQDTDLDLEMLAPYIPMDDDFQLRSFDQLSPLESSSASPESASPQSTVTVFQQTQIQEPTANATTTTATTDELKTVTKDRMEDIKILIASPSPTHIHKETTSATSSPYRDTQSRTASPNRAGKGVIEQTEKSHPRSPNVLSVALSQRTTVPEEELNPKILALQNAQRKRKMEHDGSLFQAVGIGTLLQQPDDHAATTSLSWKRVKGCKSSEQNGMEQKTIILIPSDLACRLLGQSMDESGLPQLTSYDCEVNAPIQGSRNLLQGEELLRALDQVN
T2 sequence (P27540 2-789, chain 2 of 2): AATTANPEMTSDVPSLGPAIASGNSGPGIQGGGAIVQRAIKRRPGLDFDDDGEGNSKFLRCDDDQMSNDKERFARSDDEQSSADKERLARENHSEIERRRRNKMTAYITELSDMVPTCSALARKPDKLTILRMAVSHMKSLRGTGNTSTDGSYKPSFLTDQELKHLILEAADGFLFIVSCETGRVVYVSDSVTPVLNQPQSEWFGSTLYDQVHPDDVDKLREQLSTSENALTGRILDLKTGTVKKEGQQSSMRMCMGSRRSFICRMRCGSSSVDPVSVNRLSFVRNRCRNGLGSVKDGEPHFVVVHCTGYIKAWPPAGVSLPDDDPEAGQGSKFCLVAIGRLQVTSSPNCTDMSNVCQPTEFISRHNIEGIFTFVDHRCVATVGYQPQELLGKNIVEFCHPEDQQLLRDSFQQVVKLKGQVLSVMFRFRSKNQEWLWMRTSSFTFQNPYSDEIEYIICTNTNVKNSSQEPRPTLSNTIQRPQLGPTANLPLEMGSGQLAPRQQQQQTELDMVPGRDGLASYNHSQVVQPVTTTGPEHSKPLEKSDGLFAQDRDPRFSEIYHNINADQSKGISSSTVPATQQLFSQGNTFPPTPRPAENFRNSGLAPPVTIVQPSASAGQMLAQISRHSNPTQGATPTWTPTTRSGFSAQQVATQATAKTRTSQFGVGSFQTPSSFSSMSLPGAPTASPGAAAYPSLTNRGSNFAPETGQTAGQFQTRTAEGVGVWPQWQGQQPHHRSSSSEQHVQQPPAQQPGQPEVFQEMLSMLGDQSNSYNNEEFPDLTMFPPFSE

Data set [5] addresses T2, HIF-1 (HIF-1alpha/HIF-1beta (ARNT) …). Put plainly: EMSA; competed by unlabeled W18 but not M18; buffer Z-100. The settings on record: tags: none; from CoCl2-treated HeLa S3 cells or hypoxic Hep3B cells; chain copies: heterodimer (inferred), higher-order form also seen; 5' gatc overhangs. As for the experimental part:
Nuclear extracts were fractionated by DEAE-Sepharose chromatography, and fractions containing HIF-1 activity were applied to a W18 DNA affinity column. 5 ug of protein were incubated with 0.1 ug of calf thymus DNA for gel shift analysis of crude nuclear extract (Crude NE, lane 1) and HIF-1 active fractions from DEAE-Sepharose columns (DEAE, lane 2). For fractions from the W18 column (lanes 3–13), 1 ul aliquots were incubated with 5 ng of calf thymus DNA. The positions of the two HIF-1 bands, constitutive activity (C), nonspecific activity (NS), and free probe (F) are indicated. FT, flowthrough, 0.25M, 0.5M, 1M, and 2M are fractions eluted with indicated concentration of KCl in buffer Z. Figure 3B: FIG. 3B is an autoradiograph showing sequence-specific DNA binding of the partially purified fractions described in the legend to FIG. 3A. 5 ug aliquots of fractions from the DEAE-Sepharose column were incubated with W18 probe in the presence of no competitor (lane 1), 10-fold (lanes 2 and 5), 50-fold (lanes 3 and 6), or 250-fold (lanes 4 and 7) molar excess of unlabeled W18 (W, lanes 2–4) or M18 (M, lanes 5–7) oligonucleotide.
Since HIF-1 DNA binding activity from hypoxic Hep3B cells and CoCl_2-treated HeLa cells are indistinguishable (Example 1), HeLa S3 cells treated with 125 uM CoCl_2 were used as starting material for the large scale purification of HIF-1. […]
A general note: A gel shift assay detects complexes by their altered migration in electrophoresis.

T1 sequence (Q16665 whole entry, chain 1 of 2, the tested form may be a part): as the sequence (Q16665 whole entry, chain 1 of 2) above
T1 sequence (P27540 2-789, chain 2 of 2): as the sequence (P27540 2-789, chain 2 of 2) above

B1: hEPO 3'-FS +3065/+3097 (dsDNA)
DNA 1: GCCCTACGTGCTGTCTCACACAGCCTGTCTGA
DNA 2: TCAGACAGGCTGTGTGAGACAGCACGTAGGGC
In data set [1], B1 came in with an activity of 17 fold induction.

B2: mPFKL IVS-1 +336/+361 (dsDNA)
DNA 1: GATCCCGGGTAGCTGGCGTACGTGCTGCAG
DNA 2: CTGCAGCACGTACGCCAGCTACCCGGGATC
As for B2, in data set [2], the activity was 47 fold induction.

B3: hPGK1 5'-FS -172/-194 (dsDNA)
DNA 1: GATCGTGAGACGTGCGGCTTCCGTTTG
DNA 2: CAAACGGAAGCCGCACGTCTCACGATC
In turn, B3 returned an activity in data set [3] of 5.6 fold induction.

B4: M18 (dsDNA)
DNA 1: GATCGCCCTAAAAGCTGTCTCA
DNA 2: GATCTGAGACAGCTTTTAGGGC
On to B4, for which the binding result in data set [4] is listed as “no binding”.

B5: W18 (hEPO 3'-FS nt 1-18) (dsDNA)
DNA 1: GATCGCCCTACGTGCTGTCTCA
DNA 2: GATCTGAGACAGCACGTAGGGC
Turning to B5, the binding result in data set [5] is listed as “binds”.
